Assay results from a protein production outcome set (Wang et al. 2014).

Assay: label from the status in PepcDB records
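Also: failed if final PepcDB status was selected cloned or expressed and not failed if soluble or beyond.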

Sequence | protein production
MEKYLRSGTMFVVLAFILWGLTPLYYQYLSGGNLAQILIYRVFWSIPLLLAVRLLFRQRTRFHDAWKDKKSFFFCMIAGLLMIVSWSSFIYALTHHLVLDASLGYFINPLFVIALGCIFLKEKLSLFQAIAVFSGVCGLTFQIIMLRHFPALALTMGLSFALYGLARKFIHYDVMTSITIETLWALPVSLLIFLFSDSGPIISANTPFFLYVMTAPVTIIPLVLFAIALNHTSLIVTGLAQYIEPSLQFLLAIMIFGEHINYAELLCFCAVWFGLFLCISENLYSHYLRARLKPVFGRVQRFFR | failed
MELDAFNKGAIPLINHPDCSALGYQVIQELGRNQEEGRITYLAHHHQSKQQVVIKEFSFAHTYTDWCDFTAYESEAKILQKLNHPRIPRYLDSFATQTGFYLVQEYKHALPLSSKRSFQPEEIKQIAVSVLEILVYLQQRIDPIIHRDIKPENILVDEQLNAYLVDFGLARVQDTKIALTSLLTGTPGFIPPEEQLGYSLSLASDLYSVGATLICLLANIRSVDIGKLIDSKGYFDFQKLDSQIDLRFRSWLMGMVEPKWQYRYTNAADALAALQPIQVTGNATAMEILATVIKLKYQTTVLGLAIIGVLAVAGATLILSQQGGAAQQLQEARK | failed
MELEQKLNLLNDLIVREIVNPLPPPYKVGVDLGTADIVLVVTDQEGIPVAGALKWASVVKDGLVVDYIGAIQIVRELKAKVERLLGSELFQAATAIPPGTVGRNAEACGHVVAGAGLELVTLVDEPVAAARALGINDGIVVDIGGGTTGIAVIEKGKITATFDEPTGGTHLSLVLAGSYKIPFEEAETIKKDFSRHREIMPVVRPVIEKMALIVKEVIKNYDQTLPVYVVGGTAYLTGFSEEFSRFLGKEVQVPIHPLLVTPLGIALFG | not failed
MELGFPLLWLSLVLPVLASLTIVALPPRTAYWLVAITLAIPGIVSSYYAFQGVLSEGIIDPVSLNLSNIGIGVVALAVDGFSYPFVLGVSVVTALVAVYGYKYMEVRLREMEGEGERAPGHAAYLILYSIFSSTMLGIAYSLNFLLFIIFLELSLLSSFLLIAFYGYGDRRRIALLYFVWTHIAGALALLGGLYYVIKTGTFDVATVEGGRIVYFSSPADRSVYAAIAGVSLLLGMLVKMAVFGVHMWLPYAHAEAPTPISALLSPNLIGLGGYGIARFAAAFYPWLLEDLKPLLVGLAFVTIVYGGLVALSQLDFKRLLAYSSISQMGYMLLALSTLHPLGFAAASLIFLGHAVGKAVLFMTAGVFITEAHGLRNIARMGGLARLYPLTAAAALIGFLHLAGIPPAFGFWGELYLTLSVLNYPGYSDAVSLGLLAIILIVAFTVTAAYSFITMRRIFFGRPRADMDAREEVDGFKSTVVLLAVLGVALFLLAGPMVTDLAASSLAMVEAFLS | failed
MELGSVATFSLYPDLYARFRPSYPEELYDWLLPLCPGRQRAWDCATGSGQTAVRLGESFSRVDATDISSSQLSAAEPHTQVYYRECPAEVTPFDDDCFDLICVSQALHWFHLPSFWPEMQRVLKPGGIFAAWGYHHCVVSPEVDRACSVLWSIIEPFWSSRCQLLWDDFRGSGCPLPLLKAPSFTISSDWALDHFLGFLNTTSASKLCKQALGESILDDACQRITRAWGPRNQVRRVDLPLHLMVARKDDAGGYAG | failed
MELGTPLLLTIAAAGIALLLVLIIRFKIQAFVALLAVSILVAVAAQIPLKDIFTVVTTGVGSTMGKVALLIALGAILGRMIEVSGGVQSLATHFTEKLGAKRVAIALTAVGFLVAIPVFFEVGVIVLVPIVYAFAKIANVHPIKFGLPMAGIMLSIHVAVPPHPGIVAGAGVFGADIGLITLISLIICIPLGFLSYWVASIMNRKDYELLPGVKQQVDEFGSDSLVHVGHDGPGARAIAPPRPGLIMFLIAAPIVQILLGTVGTLTLAKDNYWYGVAAFIGNPFFALLVAVALSFFLLAVRRNWSLKETGEIFEGALPPIASILMVVAAGGVFGEVLRASGIGAALSHTLDSLGLPVIVLGFIISLALRAAQGSATVAIVTTTGLLTSAVMEGGYTPAQIAVIVIAIGFGSLGLSHVTDAGFWTVIRYYGLTVSDGLKTWTVLTTILGLAGFALTYVAWILVGGLGH | failed
MELKDIMHILEDMKVGVFATLDEYGNPHARHAHITAANEEGIFFMTSPETHFYDQLMGDQRVAMTAISEEGYLIQVVRVEGTARPVENDYLKTVFADNPYYQHIYKDESSDTMQVFQIYAGHGFYHSLTQGHKYIFSIGQGEHSEVRAL | not failed
